Assay results reported in patent publication US7659081B2, “Determination of AM-binding proteins and the association of adrenomedullin (AM) therewith” (The United States of America as represented by the …, priority 1999, dated 2010).
Where no end group is shown, it is not given here.

Experiments:
AM/fH complex = AM/fH complex (Homo sapiens, UniProt P08603); settings: 3M NaSCN
Protocol: (§1) Alternatively, the AM/fH interaction was analyzed using a multi-well assay. In accordance with this assay, a 96-well polyvinylchloride (PVC) plate was coated with factor H (5 ng/well, Sigma, St. Louis, Mo.). The plate was blocked with a solution containing TBS, 0.1% ATC, and 0.1% TWEEN® 20 nonionic detergent, and then incubated with fluorescein-labeled AM (50 nM) for 2 hr. Prior to the development of the assay, the wells were incubated for various time periods with PBS or 3M NaSCN pH 7.4. Following this, the plate was washed and incubated with anti-fluorescein polyclonal antibody (1:1000, Molecular Probes) and ^125I-Protein A (Amersham Pharmacia Biotech). Radioactivity was determined using a gamma counter. FIG. 6B.

AMBP-1 (factor H) = target: T1, AMBP-1 (factor H) (Homo sapiens, UniProt P08603); test: Ligand blot competition of labeled AM binding to plasma AMBP-1; settings: 7 μM unlabeled peptide, preincubation 6 hr at 4° C.
T1 construct: Total proteins derived from human plasma (2 μl) were electrophoretically fractionated; from tissue; host or cells: human plasma
Protocol: Total proteins derived from human plasma (2 μl) were electrophoretically fractionated on 3-8% Tris-acetate gel (Novex, San Diego, Calif.) under non-reducing conditions. For the ligand blotting experiment, the proteins were transferred to a […] nitrocellulose membrane that was incubated for […] with 1% Nonidet P-40 (NP-40). Non-specific binding was further blocked with a 2 hr incubation in TBS containing 0.1% ATC. Incubations with 70 nM AM labeled with biotin, fluorescein, or DNP were carried out overnight at 4° C. in blocking buffer containing 0.1% TWEEN® 20 nonionic detergent. For biotin detection, the ligand blot was incubated with an avidin-biotin-peroxidase complex and the AEC reagent (Vector Laboratories, Inc., Burlingame, Calif.). For fluorescein and DNP, the ligand blots were incubated 1 hr at room temperature with rabbit anti-fluorescein or anti-DNP IgG, respectively, (1:1000 in incubation buffer; Molecular Probes, Inc.). Anti-rabbit antibody labeled with alkaline phosphatase (1:2000; Dako Corporation, Carpenteira, Calif.) was added for 0.5 hr, and the blot was developed using 4-nitro blue tetrazolium chloride/5-bromo-4-chloro-3-indolyl phosphate (NBT/BCIP) as the color-substrate solution (Roche Molecular Biochemicals, Indianapolis, Ind.).
Following this preincubation, labeled full-length AM was introduced and incubated overnight at 4° C.

[1] = Storage of non-radioactively labeled AM; type: physicochemical; settings: stored at 4° C. for as long as 3 months
Protocol: Non-radioactive labeling of AM was accomplished by conjugating synthetic AM comprising amino acids 1-52 (Phoenix Pharmaceuticals, Inc., Mountainview, Calif.) with succinimidyl esters linked to biotin (Pierce Chemical Co., Rockford, Ill.), fluorescein (Molecular Probes, Inc., Eugene, Oreg.), or dinitrophenol (DNP; Molecular Probes, Inc.). Briefly, 100 μg of AM (16 μM) was dissolved in 1 ml of 50 mM sodium bicarbonate, pH 8.5, and the succinimidyl ester was added to yield a final molar concentration of 10:1 (linker:AM). The mixture was incubated with slow agitation for 1 hr at room temperature and the reaction was terminated by the addition of 0.1 M ethanolamine followed by another incubation for 1 hr. Unincorporated ligand was removed by extracting the AM using reverse phase SEP-PAK® C-18 solid-phase extraction cartridges (Waters, Milford, Mass.) and eluting the sample with acidic-isopropanol. The extract was lyophilized and reconstituted in 1 ml of TBS (0.05 M Tris-HCl, 0.15 M NaCl), 0.1% alkali-treated casein (ATC), 0.1% TWEEN® 20 nonionic detergent, and 0.05% TRITON® X-100 nonionic detergent, pH 7.4.

factor H = factor H (Homo sapiens, UniProt P08603); test: Multi-well plate competition of fluorescein-labeled AM binding to factor H; design: purchased Sigma; settings: 50 nM fluorescein-labeled AM; factor H 5 ng/well; increasing concentrations of unlabeled competitor
Protocol: Lane 1: horseradish peroxidase (5 μg), a glycosylated protein used as positive control; Lane 2: soybean trypsin inhibitor (5 μg), a non-glycosylated protein used as negative control; Lane 3: AMBP-1 (2 μg). […] Lane 1: isoelectric focusing markers; Lane 2: AMBP-1 (4 μg). […] Lane 1: AMBP-1 (100 ng); Lane 2: AMBP-1 (200 ng); Lane 3: commercially available human factor H (50 ng); Lane 4: human plasma (0.2 μl). […] Results represent one of two independent experiments. Values represent mean and standard deviation of three determinations. “B/B0” indicates the ratio of signals generated in the presence/absence of unlabeled competitor.
as §1

T1 sequence (P08603 19-1231): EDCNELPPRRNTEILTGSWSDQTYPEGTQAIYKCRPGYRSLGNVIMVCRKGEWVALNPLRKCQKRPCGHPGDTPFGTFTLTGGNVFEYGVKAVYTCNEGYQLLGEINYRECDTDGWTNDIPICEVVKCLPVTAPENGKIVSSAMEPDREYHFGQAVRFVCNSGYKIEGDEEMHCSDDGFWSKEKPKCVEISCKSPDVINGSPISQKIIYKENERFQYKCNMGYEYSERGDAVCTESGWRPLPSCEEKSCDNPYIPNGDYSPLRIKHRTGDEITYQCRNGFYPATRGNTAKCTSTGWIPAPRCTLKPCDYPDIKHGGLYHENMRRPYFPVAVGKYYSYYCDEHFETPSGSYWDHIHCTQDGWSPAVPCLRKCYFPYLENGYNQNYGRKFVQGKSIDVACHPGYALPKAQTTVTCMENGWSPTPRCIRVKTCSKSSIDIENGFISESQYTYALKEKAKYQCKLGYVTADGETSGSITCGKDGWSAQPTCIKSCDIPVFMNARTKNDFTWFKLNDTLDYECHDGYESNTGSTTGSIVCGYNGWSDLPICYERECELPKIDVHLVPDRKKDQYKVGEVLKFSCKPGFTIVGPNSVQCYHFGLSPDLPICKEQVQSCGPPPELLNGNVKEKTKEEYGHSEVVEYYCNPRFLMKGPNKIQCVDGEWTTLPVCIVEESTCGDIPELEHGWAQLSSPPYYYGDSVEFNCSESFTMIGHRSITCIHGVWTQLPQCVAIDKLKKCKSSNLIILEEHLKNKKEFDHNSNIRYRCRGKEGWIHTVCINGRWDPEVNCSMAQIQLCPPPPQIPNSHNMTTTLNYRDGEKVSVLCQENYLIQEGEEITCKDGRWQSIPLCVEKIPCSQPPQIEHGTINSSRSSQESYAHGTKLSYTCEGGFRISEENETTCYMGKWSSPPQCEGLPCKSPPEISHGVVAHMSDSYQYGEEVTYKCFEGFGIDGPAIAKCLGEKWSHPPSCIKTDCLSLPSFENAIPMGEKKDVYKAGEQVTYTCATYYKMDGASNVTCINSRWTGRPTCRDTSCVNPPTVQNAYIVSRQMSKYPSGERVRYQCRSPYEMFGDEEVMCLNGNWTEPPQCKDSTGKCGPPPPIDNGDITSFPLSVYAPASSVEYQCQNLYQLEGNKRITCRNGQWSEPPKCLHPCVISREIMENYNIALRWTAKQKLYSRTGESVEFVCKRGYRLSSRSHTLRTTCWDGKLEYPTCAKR
Chain of factor H (P08603 19-1231): as above
Chain of AM/fH complex (P08603 19-1231, one chain of several): as the sequence (P08603 19-1231) above

Compound | Competition for labeled AM/AMBP-1 complex on ligand blot (AMBP-1 (factor H)) | also measured
N#C[S-].[Na+] [NaSCN, sodium thiocyanate] | – | Dissociation of AM/fH complex (AM/fH complex): dissociated
AM1-12: AM truncated polypeptide (YRQSMNNFQGLR) | only full-length AM was able to dissociate | –
AM13-52: AM truncated polypeptide | only full-length AM was able to dissociate | –
AM16-21: AM truncated polypeptide (CRFGTC) | only full-length AM was able to dissociate | –
AM22-52: AM truncated polypeptide | only full-length AM was able to dissociate | –
AM34-52: AM truncated polypeptide (TDKDKDNVAPRSKISPQGY) | only full-length AM was able to dissociate | –
Labeled AM: synthetic AM 1-52 conjugated via succinimidyl esters to biotin, fluorescein or dinitrophenol | – | Storage stability (activity) [1]: without significant loss of activity
amylin (KCNTATCATQRLANFLVHSSNNFGAILSSTNVGSNTY; not fully specified (C-terminus, bridges); cysteine pairing not given here; UniProt P10997 34-70, looked up) | only full-length AM was able to dissociate | –
calcitonin gene-related peptides [CGRP] | only full-length AM was able to dissociate | Effect on binding of fluorescein-labeled AM to factor H-coated plate (factor H): not affected
insulin-like growth factor [IGF-1] | only full-length AM was able to dissociate | –
proadrenomedullin N-terminal 20 peptide (ARLDVASEFRKKWNKWALSR) [PAMP] | only full-length AM was able to dissociate | Effect on binding of fluorescein-labeled AM to factor H-coated plate (factor H): not affected
